Source: patent US20240252641A1 (TCR2 THERAPEUTICS, published 2024)

B1: 43-TC4-VII-C04 (scFv)
scFv: QVQLLESGGGLVQPGRSLRLSCAASGFTFDDYAMHWVRQAPGKGLEWVSGISWNSGSIGYADSVKGRFTISRDNAKNSLYLQMNSLRAEDTAVYYCARDLVYYYGMDVWGQGTTVTVSSGGSGGSGGSGGSQSVLTQPPSVSGTPGQGVSISCSGSSSNIGWKTVNWYQQVPGMAPKLLIYSDNQRPSGVPDRFSGSKSATSASLAISGLQSEDEADYYCASWDASVNAPVFGGGTKLTVL
notes: His-tagged
B2: 56-TC7-VI-H08 (scFv)
scFv: QMQLVQSGAEVKKPGASVKVSCKASGYTFTSYYMHWVRQAPGQGLEWMGIINPSGGSTSYAQKFQGRVTMTRDTSTSTAYMELRSLRSDDTAVYYCARGWETNDAFDIWGQGTMVTVSSGGSGGSGGSGGSQSVLTQPPSVSGAPGQKVTISCSGSNSNVGNHYLSWYQHLPGTAPRLLIFDNNKRPSGIPDRFSGSKSGASATLDITGLQTGDEADYFCGTWDSRLNVWVFGGGTKLTVL
notes: His-tagged
B3: 58-TC7-III-G11 (scFv)
scFv: EVQLVQSGGGVVQPGRSLRLSCAASGFTFSSYAMHWVRQAPGKGLEWVAVISYDGSNKYYADSVKGRFTISRDNSKNTLYLQMNSLRAEDTAVYYCATNSGYDSDYYYGMDVWGQGTTVTVSSGGSGGSGGSGGSQSVLTQPPSMSGAPGQRVTISCTGSSSNIGAGYDVHWYQHLPGTGPKLLIHGNTNRPSGVPDRFSGSKSGTSASLAITGLQAEDEADYYCQSYDNSLGGYVVFGGGTKVTVL
notes: His-tagged
B4: 52-TC7-VIII-C02 (scFv)
scFv: QVQLLESGGGVVQPGRSLRLSCAASGFTFSSYGMHWVRQAPGKGLEWVAVISYDGSNKYYADSVKGRFTISRDNSKNTLYLQMNSLRAEDTAVYYCAKGAYYYGSVSGMDVWGQGTTVTVSSGGSGGSGGSGGSSYELTQPVSVSVALGQTARLTCAGNNIGSKNVHWYQQKPSQAPVLVIYNDNIRPNFGIPERFSGSNSGNTATLTISSAQAGDEADYYCQVWDSSTAEVFGGGTKLTVL
notes: His-tagged
B5: 35-TC6-VII-A09 (scFv)
scFv: EVQLVQSGGGVVQPGRSLRLSCAASGFTFSSYGMHWVRQAPGKGLEWVAVISYDGSNKYYADSVKGRFTISRDNSKNTLYLQMNSLRAEDTAVYYCAKAGAPPHYYYGMDVWGQGTTVTVSSGGSGGSGGSGGSQSALTQPASVSGSPGQSITISCTGTSSDVGGYDYVSWYQQHPGKAPKLMIYEVTDRPSGIPNRFSGSKSGNTASLTISGLQAEDEADYYCSSYTYTSTLEVFGGGTKVTVL
notes: His-tagged
B6: 55-TC4-IX-G04 (scFv)
scFv: QVQLLESGGGVVQPGRSLRLSCAASGFTFSSYAMHWVRQAPGKGLEWVAVISYDGSNKYYADSVKGRFTISRDNSKNTLYLQMNSLRAEDTAVYYCARGLGFGSGWYEYVDAFDIWGQGTMVTVSSGGSGGSGGSGGSQSVLTQPASVSGSPGQSITISCTGTSSDVGSYNLVSWYQQHPGKAPKLMIYEVSKRPSGVSNRFSGSKSGNTASLTISGLQAEDEADYYCSSYRSNNTPWVFGGGTKLTVL
notes: His-tagged
B7: 14-TC4-XIII-A01 (scFv)
scFv: QVQLVQSGAEVKKPGASVKVSCKASGYTFTGYYMNWVRQAPGQGLEWMAWINPNTGDTNYAQKFQGRVTMTRDTSINTAYIELSRLTSDDTAVYYCARVGDYYDRSGYYRHDAFDIWGQGTMVTVSSGGSGGSGGSGGSSSELTQDPAVSVALGQTVRITCQGDSLRSYYASWYQQKPGQAPVLVIYGKNNRPSGIPDRFSGSSSGNTASLTITGAQAMDEADYYCQAWDSSTGVVFGGGTKVTVL
notes: His-tagged
B8: 40-TC7-VI-F11 (scFv)
scFv: EVQLVESGGGVVQPGRSLRLSCAASGFTFSSYAMHWVRQAPGKGLEWVAVISYDGSNKYYADSVKGRFTISRDNSKNTLYLQMNSLRAEDTAVYYCARDGYGFDYWGQGTLVTVSSGGSGGSGGSGGSSYELTQSPSVSVAPGQTARITCGGNNIGSKSVHWYQQKPGQAPVLVVYDDSDRPSGIPERFSGSNSGNTATLTISRVEAGDEADYYCQVWDSSTPYVFGTGTKLTVL
notes: His-tagged
B9: 59-TC4-VII-F02 (scFv)
scFv: QLQLQESGPGLVKPSGTLSLTCAVSGGSISSSNWWSWVRQPPGKGLEWIGEIYHSGSTNYNPSLKSRVTISVDKSKNQFSLKLSSVTAADTAVYYCAGPGPDPNDAFDIWGQGTMVTVSSGGSGGSGGSGGSSSELTQDPAVSVALGQTVRITCQGDSLRSYYASWYQQLPGTAPKLLIYQDSKRPSGIPERFSGSNSGNTATLTISGTQAMDEADYYCQAWDSSTAVFGGGTKLTVL
notes: His-tagged
B10: 46-TC7-VII-E11 (scFv)
scFv: QVQLVQSGGGVVQPGRSLRLSCAASGFTFSSYAMHWVRQAPGKGLEWVAVISYDGSNKYYADSVKGRFTISRDNSKNTLYLQMNSLRAEDTAVYYCARDSSGYYYGSDAFDIWGQGTMVTVSSGGSGGSGGSGGSSYELTQPPSVSVALGQTVRITCQGDSLRSYYASWYQQKPGQAPVLVIYGKNNRPSGIPDRFSGSSSGNTASLTITGAQAEDEADYYCNSRDSSGNPWVFGGGTKVTVL
notes: His-tagged
B11: 51-TC7-VIII-G06 (scFv)
scFv: QVQLLESGGGLVQPGRSLRLSCAASGFTFDDYAMHWVRQAPGKGLEWVSGITWNSGSIGYADSVKGRFTISRDNAKNSLYLQMNSLRAEDTAVYYCAREVAARPFYYYGMDVWGQGTTVTVSSGGSGGSGGSGGSQSVLTQPPSVSVAPGKTARITCGGNNIGSKSVHWYQQKPGQAPVLVVYDDSDRPSGIPERFSGSNSGNTATLTISGTQAMDEADYYCQAWDSSTVFGGGTKLTVL
notes: His-tagged
B12: 30-TC1.2-I-C08-1 (scFv)
scFv: QMQLVQSGAEVKKPGASVKVSCKASGYTFTSYGISWVRQAPGQGLEWMGWINPNTGGTDYAQKFQGRVTITRDTSITTGYMELSRLRSDDTAVYYCARHYYYGMDVWGQGTTVTVSSGGSGGSGGSGGSDIQLTQSPSSLSASVGDRVTITCQASQDISNYLNWYQQKPGKAPKLLIYDASNLETGVPSRFSGSGSGTDFTFTISSLQPEDIATYYCQQYDNLPLTFGGGTKVEIK
notes: His-tagged

Biological target: T1, human CD70, recombinant, N-terminally biotinylated (residues 39-193) (human, UniProt P32970 39-193, N-terminal biotin)
T1 construct: range 39-193; the same entry is used there; also called biotinylated human CD70; CD70 biotin
T1 sequence (looked up): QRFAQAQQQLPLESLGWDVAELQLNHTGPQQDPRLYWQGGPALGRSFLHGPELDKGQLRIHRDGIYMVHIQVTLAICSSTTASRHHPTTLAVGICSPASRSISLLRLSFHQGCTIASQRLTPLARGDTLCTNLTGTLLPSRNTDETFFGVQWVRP
Assay: SPR
Outline: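 The scFv antibodies are human and were isolated by panning a naïve human library on the extracellular domain of CD70 (aa39-193). Their affinity (Kd) was measured by surface plasmon resonance analysis. The binding partner was recombinant human antigen biotinylated at the N-terminus.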

Row | Binder | Kd [nM]
1 | B1 | 69.9
2 | B2 | 535
3 | B3 | 8900
4 | B4 | 64.6
5 | B5 | 367
6 | B6 | 984
7 | B7 | 2830
8 | B8 | 279
9 | B9 | 101
10 | B10 | 180
11 | B11 | 532
12 | B12 | 67.3

Biological target: T1, human CD70, recombinant, N-terminally …
Assay: CD27 blocking ELISA, 3 µM scFv, strep/HRP

Row | Binder | strep/HRP
13 | B1 | 1.44
14 | B2 | 1.44
15 | B3 | 0.503
16 | B4 | 0.533
17 | B5 | 1.49
18 | B6 | 1.28
19 | B7 | 1.46
20 | B8 | 1.37
21 | B9 | 1.43
22 | B10 | 1.26
23 | B11 | 1.46
24 | B12 | 1.5

Biological target: T2, CD70 on cells (CHO-CD70, JVM-3, U266, Raji, THP-1, T cells) (human, UniProt P32970 1-193)
T2 construct: whole, on cells; also called cell-surface CD70
T2 sequence (looked up): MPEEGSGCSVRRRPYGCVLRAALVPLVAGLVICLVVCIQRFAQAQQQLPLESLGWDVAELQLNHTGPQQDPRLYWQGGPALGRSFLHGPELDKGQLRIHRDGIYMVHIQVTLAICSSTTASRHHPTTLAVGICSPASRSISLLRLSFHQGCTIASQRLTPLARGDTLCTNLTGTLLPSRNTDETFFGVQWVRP
Assay: 1.25 µg/mL scFv on JVM-3 cells
Outline: (§1)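 Panning of a naïve human library against the CD70 extracellular domain (aa39-193) yielded human scFv antibodies. Binding to high-CD70 (CHO-CD70, JVM3, U266) and low-CD70 (CHO WT, K562) tumour cell lines was recorded line by line.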

Row | Binder | cell binding
25 | B1 | 45000
26 | B2 | 2360
27 | B3 | 14700
28 | B4 | 8050
29 | B5 | 18800
30 | B6 | 3570
31 | B7 | 1290
32 | B8 | 4870
33 | B9 | 52100
34 | B10 | 1790
35 | B11 | 4260
36 | B12 | 37400

Biological target: T2, CD70 on cells (CHO-CD70, JVM-3, U266, …)
Assay: 1.25 µg/mL scFv on U266 cells
Outline: as §1

Row | Binder | cell binding
37 | B1 | 20000
38 | B2 | 6310
39 | B3 | 12000
40 | B4 | 2980
41 | B5 | 16500
42 | B6 | 2700
43 | B7 | 953
44 | B8 | 11800
45 | B9 | 18500
46 | B10 | 2290
47 | B11 | 2140
48 | B12 | 17400

Biological target: T2, CD70 on cells (CHO-CD70, JVM-3, U266, …)
Assay: 1.25 µg/mL scFv on CHO-CD70 cells
Outline: as §1

Row | Binder | cell binding
49 | B1 | 723000
50 | B2 | 296000
51 | B3 | 277000
52 | B4 | 430000
53 | B5 | 1.15e+06
54 | B6 | 87200
55 | B7 | 111000
56 | B8 | 235000
57 | B9 | 850000
58 | B10 | 76200
59 | B11 | 170000
60 | B12 | 503000

Biological target: T1, human CD70, recombinant, N-terminally …
Assay: CD27 blocking ELISA, 3 µM scFv, anti-His/HRP
Method: Human scFv antibodies binding CD70 were generated by panning a naïve human library with the extracellular domain (aa39-193) of CD70. 53 antibodies were identified. The ability of CD27 to block CD70 binding of the identified antibodies was measured by ELISA using two different assays. In the first assay, CD27 and his-tagged scFv anti-CD70 binders were simultaneously added to surface bound CD70, and the ability of the scFv binders to bind CD70 was detected with anti-His HRP. In the second assay, plate-bound CD70 was pre-incubated with CD27 for 30 minutes, and then additional CD27 and the his-tagged scFv anti-CD70 binder was added. The ability of the scFv binders to bind CD70 was detected with anti-His HRP. FIG. 34 is a schematic of the two different CD27 blocking assays. CD70 affinity was also measured by SPR analysis. scFv antibodies were also tested for their ability to bind tumor cell lines with high (CHO-CD70, JVM3, and U266) and low levels (CHO WT and K562 of CD70 expression. Results for 39 antibodies are shown in Table 1 below.

Row | Binder | anti His/HRP
61 | B1 | 1.81
62 | B2 | 1.5
63 | B3 | 1.97
64 | B4 | 1.56
65 | B5 | 0.639
66 | B6 | 1.24
67 | B7 | 1.74
68 | B8 | 1.84
69 | B9 | 2.06
70 | B10 | 2.28
71 | B11 | 0.676
72 | B12 | 1.83
